Measurements taken from US20150125397A1, “DUAL SPECIFIC BINDING PROTEINS DIRECTED AGAINST IMMUNE CELL RECEPTORS AND AUTOANTIGENS” (ABBVIE INC., priority 2013, published 2015).

Target: Human IgM (Homo sapiens, UniProt P01871)
Experiment: IgM binding assay (human IgM)

Sequence of Human IgM (P01871 1-433 limits assumed): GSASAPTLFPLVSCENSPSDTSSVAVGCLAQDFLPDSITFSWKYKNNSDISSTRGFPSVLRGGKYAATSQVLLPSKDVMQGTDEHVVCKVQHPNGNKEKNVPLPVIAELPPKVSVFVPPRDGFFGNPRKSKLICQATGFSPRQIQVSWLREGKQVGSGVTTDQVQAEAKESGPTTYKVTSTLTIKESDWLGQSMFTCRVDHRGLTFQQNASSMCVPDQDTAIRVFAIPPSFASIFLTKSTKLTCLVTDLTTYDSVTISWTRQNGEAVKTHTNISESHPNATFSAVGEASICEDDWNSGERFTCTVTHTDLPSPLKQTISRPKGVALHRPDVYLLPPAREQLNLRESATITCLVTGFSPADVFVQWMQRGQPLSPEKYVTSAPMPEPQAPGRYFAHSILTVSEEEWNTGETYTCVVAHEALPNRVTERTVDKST
Sequence of Human IgM (P01591 23-159 partner): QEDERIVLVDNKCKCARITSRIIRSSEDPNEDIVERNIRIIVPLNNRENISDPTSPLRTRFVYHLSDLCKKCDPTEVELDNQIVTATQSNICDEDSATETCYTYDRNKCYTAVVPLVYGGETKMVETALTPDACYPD

B1: DVD3767: DVD-Ig: VD1 hIgM (HB-57.3), SS linker, VD2 DNA (PA4); heavy SEQ ID NO 78, light 79 (antibody)
heavy: QVQLQQPGAEFVKPGAPVKLSCKASGYPFTTYWVNWMKQRPGRGLEWIGRIDPYDSETLYNQKFKDKATLTVDKSSSTAYIQLSSLTSEDSAVYYCARETYDYPFAYWGQGTLVTVSSASTKGPEVQLVESGGGLVKPGGSLKLSCVASGFTFSTYAMSWVRQTPTKRLEWVATISRGGVSTYYPDTVKGRFTISRDNAKNTLYLQMSSLRSEDTAMYYCARPPTIVTTWFAYWGQGTLVTVSS
light: DIVMTQSPSSLAMSVGQKVTMSCKSSQSLLNSSNQKNYLAWYQQKPGQSPELLVYFASTRESGVPDRFIGSGSGTDFTLTISSVQAEDLADYFCQQHYSTPFTFGSETKLEIKRTVAAPDVVMTQTPLSLPVSLGDQASISCRSSQSLVHSNGNTYLHWYLQKPGQSPKLLIYKVSNRFSGVPDRFSGSGSGTDFTLKISRVEAEDLGAYFCSQSTHVPYTFGGPTRLEIKR
potency in human IgM binding assay: highest potency

B2: DVD3769: DVD-Ig: VD1 hIgM (HB-57.3), SL linker, VD2 DNA (PA4); heavy SEQ ID NO 80, light 81 (antibody)
heavy: QVQLQQPGAEFVKPGAPVKLSCKASGYPFTTYWVNWMKQRPGRGLEWIGRIDPYDSETLYNQKFKDKATLTVDKSSSTAYIQLSSLTSEDSAVYYCARETYDYPFAYWGQGTLVTVSSASTKGPEVQLVESGGGLVKPGGSLKLSCVASGFTFSTYAMSWVRQTPTKRLEWVATISRGGVSTYYPDTVKGRFTISRDNAKNTLYLQMSSLRSEDTAMYYCARPPTIVTTWFAYWGQGTLVTVSS
light: DIVMTQSPSSLAMSVGQKVTMSCKSSQSLLNSSNQKNYLAWYQQKPGQSPELLVYFASTRESGVPDRFIGSGSGTDFTLTISSVQAEDLADYFCQQHYSTPFTFGSETKLEIKRTVAAPSVFIFPPDVVMTQTPLSLPVSLGDQASISCRSSQSLVHSNGNTYLHWYLQKPGQSPKLLIYKVSNRFSGVPDRFSGSGSGTDFTLKISRVEAEDLGAYFCSQSTHVPYTFGGPTRLEIKR
potency in human IgM binding assay: highest potency
